According to US20230416365A1 (Hoffmann-La Roche, published 2023):
Where a chain is given by its changes, count along the chain named.

Experiments:
[1] = molecular target: T1, human CEA (CEACAM5) on cells (MKN45 cells; MV3 cells engineered to express human CEACAM5) (human, UniProt P06731 35-685); test: flow cytometry on MV3 cells modified to express CEA
T1 sequence: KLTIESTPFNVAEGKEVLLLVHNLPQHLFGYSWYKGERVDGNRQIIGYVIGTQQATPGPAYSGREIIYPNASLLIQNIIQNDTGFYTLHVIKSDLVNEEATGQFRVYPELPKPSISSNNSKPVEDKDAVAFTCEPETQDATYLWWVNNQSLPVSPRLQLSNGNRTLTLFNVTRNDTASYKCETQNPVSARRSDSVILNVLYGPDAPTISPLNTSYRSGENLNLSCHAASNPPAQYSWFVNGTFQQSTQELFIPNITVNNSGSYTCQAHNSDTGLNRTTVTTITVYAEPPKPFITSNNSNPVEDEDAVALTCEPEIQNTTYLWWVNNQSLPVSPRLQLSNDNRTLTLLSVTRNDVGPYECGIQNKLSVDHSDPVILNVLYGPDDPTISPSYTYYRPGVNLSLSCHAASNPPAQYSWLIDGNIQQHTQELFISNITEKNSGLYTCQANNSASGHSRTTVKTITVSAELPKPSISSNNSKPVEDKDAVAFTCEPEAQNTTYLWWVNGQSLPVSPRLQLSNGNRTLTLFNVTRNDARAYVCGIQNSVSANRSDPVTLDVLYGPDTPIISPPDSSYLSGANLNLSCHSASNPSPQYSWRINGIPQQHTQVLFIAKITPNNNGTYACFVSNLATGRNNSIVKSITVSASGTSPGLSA

[2] = molecular target: T2, biotinylated huCD28-Fc (dimeric CD28-Fc construct with a monovalent biotinylated avi-tag) (human, UniProt P10747 19-152, biotinylated at the C-terminal avi tag); test: SPR, ProteOn XPR36, huCD28-Fc immobilised, bispecific as analyte
T2 construct: not shown: hum IgG1 Fc fragment with hole and PG-LALA mutations; hum IgG1 Fc fragment with knob and PG-LALA mutations

[3] = molecular target: T2, biotinylated huCD28-Fc (dimeric CD28-Fc …); test: SPR, ProteOn XPR36, huCD28-Fc on NLC chip, bispecific as analyte
[4] = molecular target: T3, human CD28 on CHO cells (parental cell line CHO-k1 ATCC #CCL-61, modified to stably overexpress human CD28) (human, UniProt P10747 19-220); test: binding to CHO cells expressing human CD28 (by the table's title)
T3 construct: also called hu CD28; CHO-hCD28

[5] = molecular target: T4, human FAP on 3T3-huFAP cells (clone 19) (human, UniProt Q12884 1-760); test: flow cytometry on 3T3-huFAP cells, FAP-CD28 1+1 constructs, MFI (PE)
[6] = molecular target: T3, human CD28 on CHO cells (parental cell …); test: flow cytometry on CHO cells stably expressing human CD28, FAP-CD28 1+1 constructs, MFI (PE)
[7] = molecular target: T3, human CD28 on CHO cells (parental cell …); test: flow cytometry on CHO-hCD28 cells
[8] = molecular target: T5, human GPRC5D on CHO-hGPRC5D cells (human, UniProt Q9NZD1 1-345); test: flow cytometry on CHO huGPRC5D cells, PE anti-human IgG Fc secondary
T5 construct: also called CHO huGPRC5D L2

[9] = molecular target: T6, human BCMA on IM-9 cells (human, UniProt Q02223 1-184); test: flow cytometry on IM-9 cells
T6 construct: also called B-cell maturation antigen
T6 sequence: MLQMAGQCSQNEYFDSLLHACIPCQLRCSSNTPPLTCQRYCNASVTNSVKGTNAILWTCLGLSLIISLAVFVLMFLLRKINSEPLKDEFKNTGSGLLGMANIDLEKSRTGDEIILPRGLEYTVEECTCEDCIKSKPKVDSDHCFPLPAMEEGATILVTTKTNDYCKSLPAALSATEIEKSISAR

[10] = molecular target: T4, human FAP on 3T3-huFAP cells (clone 19); test: flow cytometry on 3T3-huFAP cells, median fluorescence intensity (axis MFI APC)

B1: CEA (A5H1EL1D)-CD28 (SA_Variant 15) 1+1 format (Molecule 11C) (bispecific antibody, human IgG1, kappa, L234A L235A)
heavy 1: EIVLTQSPATLSLSPGERATLSCRASSSVTYIHWYQQKPGQAPRSWIYATSNLASGIPARFSGSGSGTDFTLTISSLEPEDFAVYYCQHWSSKPPTFGQGTKLEIKSSASTKGPSVFPLAPSSKSTSGGTAALGCLVKDYFPEPVTVSWNSGALTSGVHTFPAVLQSSGLYSLSSVVTVPSSSLGTQTYICNVNHKPSNTKVDKKVEPKSCDKTHTCPPCPAPEAAGGPSVFLFPPKPKDTLMISRTPEVTCVVVDVSHEDPEVKFNWYVDGVEVHNAKTKPREEQYNSTYRVVSVLTVLHQDWLNGKEYKCKVSNKALGAPIEKTISKAKGQPREPQVCTLPPSRDELTKNQVSLSCAVKGFYPSDIAVEWESNGQPENNYKTTPPVLDSDGSFFLVSKLTVDKSRWQQGNVFSCSVMHEALHNHYTQKSLSLSP
light 1: EVQLLESGGGLVQPGGSLRLSCAASGFTFTDYYMNWVRQAPGKGLEWLGFIGNKANAYTTEYSASVKGRFTISRDKSKNTLYLQMNSLRAEDTATYYCTRDRGLRFYFDYWGQGTTVTVSSASVAAPSVFIFPPSDEQLKSGTASVVCLLNNFYPREAKVQWKVDNALQSGNSQESVTEQDSKDSTYSLSSTLTLSKADYEKHKVYACEVTHQGLSSPVTKSFNRGEC
heavy 2: not shown
light 2: not shown
notes: huIgG1 PG-LALA CrossFab; also called P1AE4775
In the case of B1, the EC50 [1] is reported as 20.4 nM, the Kd [2] is reported as 10 nM and the koff [2] is reported as 0.00264 s⁻¹. For the same binder, the kon [2] was 259000 M⁻¹ s⁻¹.

B2: FAP (4B9) - CD28 (CD28(SA)_Variant 27) 1+1 (bispecific antibody, human IgG1, kappa, L234A L235A)
heavy 1: EIVLTQSPGTLSLSPGERATLSCRASQSVTSSYLAWYQQKPGQAPRLLINVGSRRATGIPDRFSGSGSGTDFTLTISRLEPEDFAVYYCQQGIMLPPTFGQGTKVEIKSSASTKGPSVFPLAPSSKSTSGGTAALGCLVKDYFPEPVTVSWNSGALTSGVHTFPAVLQSSGLYSLSSVVTVPSSSLGTQTYICNVNHKPSNTKVDKKVEPKSCDKTHTCPPCPAPEAAGGPSVFLFPPKPKDTLMISRTPEVTCVVVDVSHEDPEVKFNWYVDGVEVHNAKTKPREEQYNSTYRVVSVLTVLHQDWLNGKEYKCKVSNKALGAPIEKTISKAKGQPREPQVCTLPPSRDELTKNQVSLSCAVKGFYPSDIAVEWESNGQPENNYKTTPPVLDSDGSFFLVSKLTVDKSRWQQGNVFSCSVMHEALHNHYTQKSLSLSP
light 1: EVQLLESGGGLVQPGGSLRLSCAASGFTFSSYAMSWVRQAPGKGLEWVSAIIGSGASTYYADSVKGRFTISRDNSKNTLYLQMNSLRAEDTAVYYCAKGWFGGFNYWGQGTLVTVSSASVAAPSVFIFPPSDEQLKSGTASVVCLLNNFYPREAKVQWKVDNALQSGNSQESVTEQDSKDSTYSLSSTLTLSKADYEKHKVYACEVTHQGLSSPVTKSFNRGEC
heavy 2: not shown
light 2: not shown
notes: huIgG1 PG-LALA CrossFab 1+1; also called P1AE3140
Work on B2 yielded a Kd [3] of 5.4 nM, a koff [3] of 0.00121 s⁻¹ and a kon [3] of 227000 M⁻¹ s⁻¹. The Kd [4] was 5.4 nM, the binding result [5] was “binds” and the “EC50 (read off the curve)” value [6] was ~3 nM.

B3: GPRC5D (5E11)-CD28 (SA_Variant 8) 1+1 format (Molecule 16B) (bispecific antibody, human IgG1, kappa, L234A L235A)
heavy 1: not shown
light 1: QVQLVQSGAEVKKPGASVKVSCKASGYTFTSYYIHWVRQAPGQGLEWIGSIYPGNVQTNYNEKFKDRATLTVDTSISTAYMELSRLRSDDTAVYFCTRSHYGLDFNFDVWGQGTTVTVSSASVAAPSVFIFPPSDEQLKSGTASVVCLLNNFYPREAKVQWKVDNALQSGNSQESVTEQDSKDSTYSLSSTLTLSKADYEKHKVYACEVTHQGLSSPVTKSFNRGEC
heavy 2: EVQLLESGGGLVQPGGSLRLSCAASGFTFSKYAMAWVRQAPGKGLEWVASISTGGVNTYYADSVKGRFTISRDNSKNTLYLQMNSLRAEDTAVYYCATHTGDYFDYWGQGTMVTVSSASTKGPSVFPLAPSSKSTSGGTAALGCLVEDYFPEPVTVSWNSGALTSGVHTFPAVLQSSGLYSLSSVVTVPSSSLGTQTYICNVNHKPSNTKVDEKVEPKSCDKTHTCPPCPAPEAAGGPSVFLFPPKPKDTLMISRTPEVTCVVVDVSHEDPEVKFNWYVDGVEVHNAKTKPREEQYNSTYRVVSVLTVLHQDWLNGKEYKCKVSNKALGAPIEKTISKAKGQPREPQVCTLPPSRDELTKNQVSLSCAVKGFYPSDIAVEWESNGQPENNYKTTPPVLDSDGSFFLVSKLTVDKSRWQQGNVFSCSVMHEALHNHYTQKSLSLSP
light 2: EIVLTQSPGTLSLSPGERATLSCRASQSVSISGINLMNWYQQKPGQQPKLLIYHASILASGIPDRFSGSGSGTDFTLTISRLEPEDFAVYYCQQTRESPLTFGQGTRLEIKRTVAAPSVFIFPPSDRKLKSGTASVVCLLNNFYPREAKVQWKVDNALQSGNSQESVTEQDSKDSTYSLSSTLTLSKADYEKHKVYACEVTHQGLSSPVTKSFNRGEC
notes: huIgG1 PG-LALA CrossFab; also called P1AF2954
With B3 the EC50 [7] was 74.2 nM and the binding result [8] was “binds”.

B4: anti-BCMA-CD28 (SA_Variant 15) 1+1 format (Molecule 16D) (bispecific antibody, human IgG1, kappa, L234A L235A)
heavy 1: not shown
light 1: B3 light 1 with F105W
heavy 2: EVQLLESGGGLVQPGGSLRLSCAASGFTFSSYAMNWVRQAPGKGLEWVSAITASGGSTYYADSVKGRFTISRDNSKNTLYLQMNSLRAEDTAVYYCARYWPMSLWGQGTLVTVSSASTKGPSVFPLAPSSKSTSGGTAALGCLVEDYFPEPVTVSWNSGALTSGVHTFPAVLQSSGLYSLSSVVTVPSSSLGTQTYICNVNHKPSNTKVDEKVEPKSCDKTHTCPPCPAPEAAGGPSVFLFPPKPKDTLMISRTPEVTCVVVDVSHEDPEVKFNWYVDGVEVHNAKTKPREEQYNSTYRVVSVLTVLHQDWLNGKEYKCKVSNKALGAPIEKTISKAKGQPREPQVCTLPPSRDELTKNQVSLSCAVKGFYPSDIAVEWESNGQPENNYKTTPPVLDSDGSFFLVSKLTVDKSRWQQGNVFSCSVMHEALHNHYTQKSLSLSP
light 2: EIVLTQSPGTLSLSPGERATLSCRASQSVSAYYLAWYQQKPGQAPRLLMYDASIRATGIPDRFSGSGSGTDFTLTISRLEPEDFAVYYCQQYERWPLTFGQGTKVEIKRTVAAPSVFIFPPSDRKLKSGTASVVCLLNNFYPREAKVQWKVDNALQSGNSQESVTEQDSKDSTYSLSSTLTLSKADYEKHKVYACEVTHQGLSSPVTKSFNRGEC
notes: huIgG1 PG-LALA CrossFab; also called P1AE9053
For B4, the EC50 [9] was 3.96 nM and the EC50 [7] was 9.9 nM.

B5: FAP-CD28SA 2+1 (P1AD5231) (bispecific antibody, human IgG1, kappa, L234A L235A)
heavy chain CD28(SA) VLCH1 - FAP(4B9) VHCH1 EE - Fc knob PGLALA: not shown
heavy chain FAP(4B9) VHCH1 EE - Fc hole PGLALA: EVQLLESGGGLVQPGGSLRLSCAASGFTFSSYAMSWVRQAPGKGLEWVSAIIGSGASTYYADSVKGRFTISRDNSKNTLYLQMNSLRAEDTAVYYCAKGWFGGFNYWGQGTLVTVSSASTKGPSVFPLAPSSKSTSGGTAALGCLVEDYFPEPVTVSWNSGALTSGVHTFPAVLQSSGLYSLSSVVTVPSSSLGTQTYICNVNHKPSNTKVDEKVEPKSCDKTHTCPPCPAPEAAGGPSVFLFPPKPKDTLMISRTPEVTCVVVDVSHEDPEVKFNWYVDGVEVHNAKTKPREEQYNSTYRVVSVLTVLHQDWLNGKEYKCKVSNKALGAPIEKTISKAKGQPREPQVCTLPPSRDELTKNQVSLSCAVKGFYPSDIAVEWESNGQPENNYKTTPPVLDSDGSFFLVSKLTVDKSRWQQGNVFSCSVMHEALHNHYTQKSLSLSP
CD28(SA) VHCL: B3 light 1 with S50C, Q57N, F105W
FAP(4B9) VLCL RK: EIVLTQSPGTLSLSPGERATLSCRASQSVTSSYLAWYQQKPGQAPRLLINVGSRRATGIPDRFSGSGSGTDFTLTISRLEPEDFAVYYCQQGIMLPPTFGQGTKVEIKRTVAAPSVFIFPPSDRKLKSGTASVVCLLNNFYPREAKVQWKVDNALQSGNSQESVTEQDSKDSTYSLSSTLTLSKADYEKHKVYACEVTHQGLSSPVTKSFNRGEC
notes: monovalent for CD28, bivalent for FAP; also called Molecule G; FAP (4B9)-CD28 (SA) 2+1
B5 was tested, and the “EC50 (read off the curve)” value [10] was ~0.3 nM.
